Reference: the Immune Epitope Database (IEDB)
Blank lines part the entries; values can stand above or below the sequence they belong to.

Columns and labels:
HLA-B*15:02 = test: IEDB peptide-MHC binding, purified MHC/competitive/fluorescence; filed as Kd, often an IC50 or EC50 that approximates it; ≥ and ≤ were set here for values at or beyond the usual limits of such assays
HLA-A*26:02 = test: as above; settings: source organism: Human immunodeficiency virus 1
HLA-A*11:01 = test: as above; settings: source organism: Human immunodeficiency virus 1
HLA-B*15:17 = test: as above; settings: source organism: Human immunodeficiency virus 1
HLA-B*15:01 = test: as above
HLA-B*18:01 = test: as above; settings: source organism: Human immunodeficiency virus 1
HLA-A*02:03 [1] = test: as above; settings: source organism: Human immunodeficiency virus 1
HLA-A*30:01 = test: as above; settings: source organism: Human immunodeficiency virus 1
HLA-A*02:06 = test: as above; settings: source organism: Human immunodeficiency virus 1
HLA-B*35:01 = test: as above
HLA-B*57:01 = test: as above
HLA-A*01:01 = test: as above
HLA-C*05:01 = test: IEDB peptide-MHC binding, purified MHC/direct/fluorescence; filed as Kd, often an IC50 or EC50 that approximates it; ≥ and ≤ were set here for values at or beyond the usual limits of such assays; settings: source organism: Influenza A virus (A/duck/Bavaria/1/1977(H1N1))
HLA-C*07:02 = test: as above
HLA-B*07:02 = test: IEDB peptide-MHC binding, purified MHC/competitive/fluorescence; filed as Kd, often an IC50 or EC50 that approximates it; ≥ and ≤ were set here for values at or beyond the usual limits of such assays; settings: source organism: Influenza A virus (A/duck/Bavaria/1/1977(H1N1))
HLA-C*14:02 = test: IEDB peptide-MHC binding, purified MHC/direct/fluorescence; filed as Kd, often an IC50 or EC50 that approximates it; ≥ and ≤ were set here for values at or beyond the usual limits of such assays
HLA-A*24:02 = test: IEDB peptide-MHC binding, purified MHC/competitive/fluorescence; filed as Kd, often an IC50 or EC50 that approximates it; ≥ and ≤ were set here for values at or beyond the usual limits of such assays; settings: source organism: Entamoeba histolytica HM-1:IMSS
HLA-B*14:02 = test: IEDB peptide-MHC binding, purified MHC/competitive/fluorescence; ≥ and ≤ were set here for values at or beyond the usual limits of such assays; settings: source organism: Human immunodeficiency virus 1
HLA-C*15:02 = test: IEDB peptide-MHC binding, purified MHC/direct/fluorescence; filed as Kd, often an IC50 or EC50 that approximates it; ≥ and ≤ were set here for values at or beyond the usual limits of such assays; settings: source organism: Mycobacterium tuberculosis H37Ra
HLA-C*12:03 = test: as above
HLA-C*03:03 = test: as above
HLA-A*02:12 = test: as above; settings: source organism: Ebola virus Yambio0403
HLA-A*02:16 = test: as above; settings: source organism: Ebola virus Yambio0403
HLA-A*02:03 [2] = test: as above; settings: source organism: Ebola virus Yambio0403
HLA-A*68:02 = test: as above; settings: source organism: Ebola virus Yambio0403
HLA-B*08:01 = test: as above
HLA-A*03:01 [3] = test: as above; settings: source organism: Ebola virus Yambio0403
HLA-A*02:19 = test: as above; settings: source organism: Ebola virus Yambio0403
HLA-B*46:01 = test: IEDB peptide-MHC binding, purified MHC/competitive/fluorescence; filed as Kd, often an IC50 or EC50 that approximates it; ≥ and ≤ were set here for values at or beyond the usual limits of such assays; settings: source organism: Zaire ebolavirus
HLA-B*27:05 = test: as above; settings: source organism: Zaire ebolavirus
HLA-B*39:01 = test: as above; settings: source organism: Zaire ebolavirus
HLA-A*26:01 = test: as above; settings: source organism: Zaire ebolavirus
HLA-A*02:01 = test: as above; settings: source organism: Zaire ebolavirus
HLA-B*51:01 = test: as above; settings: source organism: Zaire ebolavirus
HLA-A*69:01 = test: as above; settings: source organism: Zaire ebolavirus
HLA-B*58:01 = test: as above; settings: source organism: Escherichia coli O139:H28 str. E24377A
HLA-A*03:01 [4] = test: as above; settings: source organism: Escherichia coli O139:H28 str. E24377A
[5] = source organism: Entamoeba histolytica HM-1:IMSS
[6] = source organism: Human immunodeficiency virus 1
[7] = source organism: Mycobacterium tuberculosis H37Ra
[8] = source organism: Zaire ebolavirus
[9] = source organism: Escherichia coli O139:H28 str. E24377A
[10] = source organism: Yellow fever virus

Sequence: ILLFPLPSF
Kd (HLA-B*15:02; [5]): 2060 nM

Sequence: KSLFNTIAVLY
Kd (HLA-A*26:02): 1110 nM
Kd (HLA-A*11:01): 1920 nM
Kd (HLA-B*15:17): 21.3 nM
Kd (HLA-B*15:01; [6]): 1200 nM
Kd (HLA-B*18:01): 260 nM
Kd (HLA-A*02:03 [1]): 566 nM
Kd (HLA-A*30:01): 1350 nM
Kd (HLA-A*02:06): 206 nM
Kd (HLA-B*35:01; [6]): 1010 nM
Kd (HLA-B*57:01; [6]): 190 nM
Kd (HLA-A*01:01; [6]): 2130 nM

Sequence: LPFQNIHPI
Kd (HLA-C*05:01): ≥ 20000 nM
Kd (HLA-C*07:02; source organism: Influenza A virus (A/duck/Bavaria/1/1977(H1N1))): ≥ 20000 nM
Kd (HLA-B*07:02): 104 nM

Sequence: ELYPGDSAH
Kd (HLA-B*15:02; source organism: Clostridium botulinum A str. ATCC 3502): 615 nM

Sequence: KYNSHHFTF
Kd (HLA-C*14:02; [5]): 80 nM
Kd (HLA-C*07:02; [5]): 2 nM
Kd (HLA-A*24:02): ≤ 0.1 nM

Sequence: KHYMLKHL
IC50 (HLA-B*14:02): ≥ 20000 nM

Sequence: KAAGAAVAL
Kd (HLA-C*15:02): 1770 nM
Kd (HLA-C*12:03; [7]): 76 nM
Kd (HLA-C*03:03; [7]): 2 nM

Sequence: FRYEFTAPF
Kd (HLA-A*02:12): ≥ 20000 nM
Kd (HLA-C*14:02; [8]): 209 nM
Kd (HLA-A*02:16): ≥ 20000 nM
Kd (HLA-A*02:03 [2]): ≥ 20000 nM
Kd (HLA-A*68:02): ≥ 20000 nM
Kd (HLA-B*08:01; [8]): 6570 nM
Kd (HLA-A*03:01 [3]): ≥ 20000 nM
Kd (HLA-A*02:19): ≥ 20000 nM
Kd (HLA-B*46:01): ≥ 20000 nM
Kd (HLA-B*27:05): 724 nM
Kd (HLA-B*39:01): 0.7 nM
Kd (HLA-A*26:01): ≥ 20000 nM
Kd (HLA-A*02:01): ≥ 20000 nM
Kd (HLA-B*51:01): ≥ 20000 nM
Kd (HLA-B*35:01; [8]): 952 nM
Kd (HLA-B*57:01; [8]): ≥ 20000 nM
Kd (HLA-A*69:01): ≥ 20000 nM

Kd (HLA-B*15:01; [9]): 2380 nM
Kd (HLA-B*58:01): 104 nM
Kd (HLA-A*03:01 [4]): ≥ 20000 nM
Kd (HLA-B*35:01; [9]): 4.6 nM
Kd (HLA-A*01:01; [9]): 1670 nM
Sequence: LANWCLLNY

Sequence: TQHFGWHAF
Kd (HLA-B*15:02; source organism: Vibrio antiquarius): 21.4 nM

Kd (HLA-B*15:02; source organism: Escherichia coli APEC O1): 9.5 nM
Sequence: NLYGWHLPL

Sequence: VAIDRPAEV
Kd (HLA-C*12:03; [10]): ≤ 1 nM
Kd (HLA-C*03:03; [10]): 2 nM

Sequence: IMYNYPAML
Kd (HLA-B*08:01; source organism: Mycobacterium tuberculosis): 2680 nM
Kd (HLA-C*03:03; source organism: Mycobacterium leprae): 45 nM
